Tested on: 19-mer (SEQ ID NO:11) cleavage domain peptide

Active MMP-9 enzyme, sequence (chain, as listed by the source): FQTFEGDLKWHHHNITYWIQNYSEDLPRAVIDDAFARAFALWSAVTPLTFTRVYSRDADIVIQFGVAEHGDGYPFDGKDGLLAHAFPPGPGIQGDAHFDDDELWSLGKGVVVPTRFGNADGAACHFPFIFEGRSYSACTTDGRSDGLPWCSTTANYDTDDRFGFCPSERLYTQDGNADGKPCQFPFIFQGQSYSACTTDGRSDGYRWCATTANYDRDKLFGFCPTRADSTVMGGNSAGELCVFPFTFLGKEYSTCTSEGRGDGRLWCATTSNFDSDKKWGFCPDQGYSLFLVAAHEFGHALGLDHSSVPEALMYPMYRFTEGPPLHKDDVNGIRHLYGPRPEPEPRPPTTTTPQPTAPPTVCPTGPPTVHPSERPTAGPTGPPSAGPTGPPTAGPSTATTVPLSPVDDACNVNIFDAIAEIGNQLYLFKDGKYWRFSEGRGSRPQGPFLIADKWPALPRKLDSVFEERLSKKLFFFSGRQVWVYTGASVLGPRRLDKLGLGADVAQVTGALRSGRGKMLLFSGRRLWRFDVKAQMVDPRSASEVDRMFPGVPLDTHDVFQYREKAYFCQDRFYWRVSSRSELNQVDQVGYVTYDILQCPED

Active MMP-9 enzyme
extended time course of MMP-9 catalyzed hydrolysis of collagen: the 19-mer (SEQ ID NO:11) effectively inhibits the MMP-9 catalyzed hydrolysis of collagen to beyond 1000 minutes

Source: patent publication US20030096757
